The values below come from patent publication US20250215403A1, “Compositions and Methods for Cardiac Tissue Regeneration” (Temple University - Of The Commonwealth System Of Higher …, priority 2022, published 2025).

In one series the test system is cardiomyocytes (CM). Kind of series: Mouse MI model: TUNEL staining of CM apoptosis. It counts as in vivo. The note with it: vs Luc modRNA. On the procedure:
(§1) All surgical and experimental procedures with mice were performed in accordance with protocols approved by Institutional Animal Care and Use Committees at Temple University Animal Care and Use Committee (IACUC). C57BL6 or CM-specific MADM mice (8-12-weeks-old) were anesthetized with isoflurane. MI was induced by permanent ligation of the LAD, as previously described (Garikipati, V. N. S., et al., 2019, Nature Communications, 10:4317). Briefly, the left thoracic region was shaved and sterilized. After intubation, the heart was exposed through a left thoracotomy. A suture was placed to ligate the LAD. The thoracotomy and skin were sutured closed in layers. Excess air was removed from the thoracic cavity, and the mouse was removed from ventilation when normal breathing was established. In order to determine the effect of modRNA on cardiovascular outcome after MI, modRNAs (100 μg/heart) were injected into the infarct zone immediately after LAD ligation (Magadum A., et al., Circulation. 2020, 141 (15): 1249-1265). For examination of heart histology, hearts were collected at the end of each study, quickly washed in PBS, weighed, and fixed in 4% PFA for cryo-sectioning and immunostainings. In all experiments, the surgeon was blinded to the treatment group. For assessment of heart histology, hearts were collected at the end of each study. The hearts were excised, briefly washed in PBS, perfused with perfusion buffer, weighed and fixed in 4% PFA at 4° C. overnight. The heart blocks were transverse sectioned at 6-8 μm using cryostat. The heart sections were further processed for histological evaluation using immunostaining (see below) or histological scar staining using Masson's trichrome staining kit (Sigma) according to standard procedures. Measuring the ratio of heart weight to body weight was done using a scale. This ratio was calculated as the heart tissue weight relative to the mouse total body weight in grams (g).
(§2) Mice hearts were harvested, weighed, and fixed in 4% PFA/PBS overnight on shaker and then washed with PBS for 1 hour and incubated in 30% sucrose/PBS at 4° C. for 12-18 hours. Hearts were then fixed in OCT and frozen at −80° C. (Magadum A., et al., Circulation. 2020, 141 (15): 1249-1265). Transverse heart sections (6-8 μm) were made using a cryostat. […] For immunostaining with wheat germ agglutinin (WGA) for CM size quantification, images were captured at 40× magnification, and ImageJ was used to determine the area of each cell. Quantitative analyses involved counting of multiple fields from 5-8 mouse hearts per group, and 3-4 sections/heart (˜50 cells per field assessed, for a total ˜250 cells per sample). […] BrdU positive CMs were counted in multiple fields from three independent samples per group and 3 sections/heart. […]

Series [1] in a line: Mouse MI model: heart histology 28 days post-MI (Masson trichrome scar size, HW/BW, WGA CM size, CD31 capillaries). Type of series: in vivo. On the procedure:
as §1, §2

The subject of the next series is GSK3β. In words: Western blot of Ser9 phosphorylation of GSK3β in NRVM. It counts as cell-based, rat. The note with it: compared to Luc modRNA. On the procedure: Total protein was isolated from the respective cells or tissues at given time points. In brief, equal amounts of protein were resolved by SDS-PAG Electrophoresis system in 4%-15% Mini-PROTEAN TGX stain-free gels (Bio-Rad) and blotted onto nitrocellulose membranes (Bio-Rad). The membranes were blocked in Intercept® (TBS) blocking buffer (LI-COR) diluted 1:1 with PBS for 1 hour at room temperature and washed with PBST (1% Tween® 20, pH 7.4) for 10 min. Primary antibodies diluted in blocking buffer were added and incubated overnight at 4° C. Anti-PSAT1 (1:1,000, Invitrogen, #PA5-22124), anti-Flotillin 1 (1:1,000, Cell Signaling, #3253), anti-pSer9GSK3B (1:1,000, Cell Signaling, #9336), anti-GSK3B (1:1,000, Cell Signaling, #9315), and anti-β-actin (1:1000, Santa Cruz, #sc-47778) antibodies were used. The next day, membranes were washed with PBST (3×10 min). Anti-rabbit and anti-mouse IRDye 800CW secondary antibodies (LI-COR) were applied for 1 hr at room temperature. The membranes were washed with PBST (3×10 min) and antigen or antibody complexes were visualized and quantified using Odyssey Fc Imaging System (LI-COR Biosciences, model number 2800).
In general terms: A western blot detects proteins with antibodies after separation by electrophoresis.

B1: PSAT1 modRNA: modified mRNA with N1-methylpseudouridine, transcribed in vitro, encoding phosphoserine aminotransferase 1 (ORF SEQ ID NO: 1, RNA SEQ ID NO: 2) (nucleic acid)
chain: AUGGAAGCCACCAAGCAAGUGGUUAACUUUGGGCCCGGGCCUGCCAAGCUGCCACACUCGGUAUUGUUGGAGAUCCAGAAGCAGCUACUAGACUACAGAGGACUCGGCAUCAGUGUGCUCGAAAUGAGUCACAGGUCAUCAGAUUUUGCCAAGAUUAUUGGCAAUACAGAGAAUCUUGUGAGGGAAUUGCUAGCUGUUCCCAACAACUACAAGGUGAUCUUUGUACAAGGAGGUGGGUCUGGCCAGUUCAGUGCUGUCCCCUUAAAUCUGAUUGGCCUGAAAGCUGGAAGGAGUGCUGACUACGUGGUGACCGGAGCUUGGUCAGCUAAGGCUGCGGAAGAAGCCAAGAAGUUUGGAACGGUGAACAUUGUCCACCCUAAACUUGGAAGUUACACAAAAAUUCCAGACCCAAGCACCUGGAACCUCAACCCGGACGCCUCCUAUGUAUACUUCUGUGCAAACGAGACUGUGCACGGGGUGGAGUUUGACUUCGUACCUGACGUCAAGGGAGCGGUGCUGGUCUGUGACAUGUCCUCAAACUUCUUAUCCAGGCCGGUGGAUGUUUCCAAGUUUGGUGUGAUUUUCGCUGGUGCUCAGAAGAAUGUUGGCUCUGCCGGGGUGACGGUGGUGAUUGUCCGGGAUGACCUGCUGGGGUUCUCGCUCAGAGAGUGCCCAUCAGUCCUUGACUACAAAGUGCAGGCUGGGAACAACUCUUUGUAUAACACACCUCCGUGCUUCAGCAUCUACGUCAUGGGCAUGGUCCUGGAAUGGAUCAAGAACAACGGCGGGGCCGCAGCCAUGGAGAAGCUCAGCUCCAUCAAAUCCCAAAUGAUUUAUGAGAUCAUUGAUAAUUCUCAAGGAUUUUAUGUAUGCCCAGUGGAGCGCCAGAAUAGAAGCAGGAUGAACAUCCCAUUUCGCAUUGGCAACGCCAAAGGAGACGAAGCUUUGGAAAAGCGGUUUCUUGACAAGGCGGUAGAACUCAACAUGAUCUCCUUGAAGGGGCACAGGUCAGUGGGAGGCAUUCGUGCCUCUCUGUAUAACGCUGUCACAACCGAAGACGUUGAGAAGCUGGCGGCCUUCAUGAAGAAUUUCUUGGAGAUGCAUCAGCUGUGA
modifications: N1-methylpseudouridine
Take B1: the “TUNEL+ CMs” value in the series on cardiomyocytes (CM) (2 days post-MI) is reported as “significantly decreased”. Further, the “TUNEL+ CMs” value with cardiomyocytes (CM) (7 days post-MI) is “significantly decreased”. In series [1], the “CM size (WGA)” value is given as “significantly decreased”, the “capillary density (CD31)” value is reported as “improved” and the “heart weight to body weight (HW/BW) ratio” value is listed as “significantly increased”. Besides, in series [1] (compared to Luc modRNA), the “scar size (Masson's trichrome staining)” value is “decreased”. Besides, the “phosphorylation of GSK3β at Ser9” value with GSK3β is reported as “induces”.
